Test: yeast display, Sf9 membrane polyspecificity reagent, FACS + sequencing; frameworks hold sequencing errors
Outline: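 Using colony PCR, genes from sorted yeast display clones were amplified, then sequenced on MiSeq at 2 × 250 and filtered by CDR length. The clones had been stained with 10% biotinylated, detergent-solubilized Sf9 membrane reagent for 1 hour at 4 °C and sorted by FACS into low and high (top ~1%) gates on anti-HA and streptavidin fluorescence. Polyreactivity labels come from the gate of origin.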

Sequence | polyreactivity (PSR sort gate)
QVQLQESGGGLVQAGGSLRLSCAASGTISPLPAMGWYRQAPGKEREFVAGIDTGAITNYADSVKGRFTISRDNAKNTVYLQMNSLKPVDTAVYYCAVFPAAYDYYERYYTYWGQGTQVTVSS | low polyreactivity
QVQLVDSGGGLVQAGGSLRLSSAASGSTFAVNAMGWYIQARGKERELVAAISDSDGSTFYADSVKGRFTISRDNAKNTVYLQMNSLKPEDTAVYYCAATVYRVFRYSYLYYYWGQGTQVTVSS | low polyreactivity
QVQLVESGGGLVQAGGSLRLSCAASGRTFYRNAMGWYIQAPGKERELVAAITWSGVSTYYADSVKGRFTISRDNAKNTVYLQMNSLKPEDTAVYYCARGRVLRNGHYFQLRNYDYWGQGTQVTVSS | high polyreactivity
QVQLVESGGGLVQAGGSLRLSCAASGFTFEKYAMGWYRQAPGHERELVASISWSGGRTRYADSVKGRFTISRDNAKNTVYLQMNSLTPEDTAVDYCAASYRYFGRSTVRYDYWGQGTQVTVSS | high polyreactivity
QVQLVESGGGLVQAGGSLRLSCAASGFIFYRNTMGWYRQAPGKESELVAAISRRGGNTYYADSVKGRFTISRDYAKNTVYLQMNSLKPEDTAVYYCNADGNAVYNRVSYDYWGQGTQVTVSS | high polyreactivity
QVQLVESGGGLVQAGGSLRLSCAASGSIFARYVMGWYRQAPGKERELVAAISRGGRTKYADSVKGRFTISRDNAKNTVYLQMNSLKPEDTAVYYCAAEPFNGRTDLDYWGQGTQVTVSS | high polyreactivity
QVQLVESGGGLVQAGGSLRLSCAASGRTFYHNAMGWYRQAPGKERELVASNRWSGGSTYADSVNGRFTISRDNAKNTVYLQMNSLKPEDTAVYYCARRYYRTGYWEPFIALNGYWGQGTKVTVSS | high polyreactivity
QVQLVESGGGLVQAGGSLRLSCAASGYTFGSYAMGWYRQAPGKERELVAAISKRGGRTYYADSVKGRFTISRDNAKNTVYLQMNSLKPEDTAVYYCAKDYPKYDYWGQGTQVTVSS | high polyreactivity
QVQLVESGGGLVQAGGSLRLSCAASGRIFGINVMGWYRQAPGKERELVARITGRGGRTYYADSVKGRFTISRDNAKNTVYLQMNSLKPEDTAVYYCAADARYEAYDYWGQGTQVTVSS | high polyreactivity
QVQLVESGGGLVQAGGSLRLSCAASGRIFYSYAMGWYREAPGKERELVAAIDESDGSTYYADSVKGRFTISRDNAKNTVYLQMNSLKQEDTADYYCNADLTLGGEFDYWGHGTQVTVSS | low polyreactivity
QVQLVESGGGLVQAGGSLRLSCAASGSIFFRYAMGWYRQAPGKVRELVANISSGGGNTYYADSVKGRFTISRDNAKNTVYLQMNSLKPEDTAVYYCARRLATRGHTYDYWGQGTQVTVSS | low polyreactivity
QDQLVESGGGLVQAGGSLRISCAASGRIFRRNTMGRYRQAPGKERELVADINSSDGDTYYADSVKGRFTISRDNAKNTVYLQMNSLKPEDTAVYYCAADLSPLGEMDYWGQGTQVTVSS | low polyreactivity
QVQLVESGGGLVQAGGSLRLSCAASGKTFVYYTMGWYRQAPGKERELVAAISYSGGSTYYADSVKGRFTLSRDNAKNTVYLQMNSLKPEDTAVYYCAKQVADRYDYWGQGTQVTVSS | low polyreactivity
QVQLLESGGGLVQAGGSLRLSCAASGSTIRVNGMGWYRQAPGKERELVAVISWSGGSTYYADSVKGRFTISRDNAKNTVYLQMNSLKPEDTAVYYCNKLIYDEDEYWGQGTQVSVSS | high polyreactivity
QVQLVESGGGLVQAGGSLRLSCAASGFTFYVYAMGWYRQAPGKERELVAAISRGGSTYYADSVKGRFTISRDNAKNTVYLQMNSLKPEDTAVYYCNRVPYVSSSKVRYSNGFDYWGQGTQVTVSS | low polyreactivity
QVQLVESGGGLVQAGGSLRLSCAASGSTFYPYAMGWYRQAPGKERELVAAISISGGITYYADSVKGRFTISRDNAKNTVYLQMNSLKPEDTAVYYCAAEYLAVSGYWYDYWGQGTQVTVSS | high polyreactivity
QVQLVDSGGGLVQAGGSLRLSCASSGFTISPYAMGWYRQAPGKERELVAAISSSGGSTYYADSVKGRFTISRDNAKYTVYLQMTSLKPEDTAVYYCATQGTRRPGKFYYWGQCTQVTVSS | high polyreactivity
QVQLVESGGGLVQAGGSLRLSCAASGLIFHPYTMGWYRQAPGKERELVAAITSTGGSTYYADSVKGRFTISRDNAKNTVYLQMNSLKPEDTAVYYCATDYGYYDYWGQGTQVTVSS | low polyreactivity
QVQLVESGGGLVQAGGSLRLSCAASGSIFKSNGMGWYRQAPGKERELVAAITGSGGTTYYADSVKGRFTISRDNAKNTVYLQMNSLKPEDTAVYYCAADIYWYPTYYYWGQGTQVTVSS | low polyreactivity
QVQLVESGGGLVQAGGSLLLSCAAARIIFKYNAMGWYRQAPGKDRELVARITARGGRTNYADSVKGRFTISRDNAKHTVYLQMNSLKPEDTAVYYCAKKLRGWHTIITDYDYWGQGTQVTVSS | low polyreactivity
QVQLVESVGGLVQAVGSLRLSCAASGFTFSDYAMGWYRHAPGKERELVAAISTRCSSTYYADSVKGRFTISRDIAKNNVYLQMNSLKPEDTAVYYCNAVGSYSGYYYWGQGTQVTVSS | high polyreactivity
QVQLVESGGGLVQAGGSLRLSCAASGRTFYRYAMGWYRQAPGKERELVAAISGSGTSTSYADSVKGRFTISRDNAKNTVYLQMNSLKPEDTAVYYCAATYYVYYYSRYYYWGQGTQVTVSS | high polyreactivity

Sequence | polyreactivity (PSR sort gate)
QVQLVESGGGLVQAGGSLRLSCAASGITFGAYTMGWYRQAPGKERELVAAISRTGARTYYADSVKGRFTISRDNAKNTVYLQMNSLKPEDTAVYYCAAYRIGQYDYWGQGTQVTVSS | high polyreactivity
QVQLVESGGGLVQAGGSLRLSCAASGRIISYYAMGWYRQAPGKERELVAAISRSGGSTYYADSVKGRFTISRDNAKNTVYLQMNSLKPEDTAVYYCAKYFRPVQGDKWGFKYWGQGTQVTVSS | high polyreactivity
QVQLVESGGGLVQAGGSLRLSCAASRRTFGYYAMGWYRKAPGKEREMVAAIRSTGSTNYADSVKGRFTISRDNAKNSVYLQMNCLKPEDTAVYYCNAKRRFRYDYWGLGTQVTVSS | low polyreactivity
QVQLVESGGGLVQAGGSLRLSCAASGGIFQENAMGWYRQAPGKERELVATITRSTGSTYYADSVKGRFTISRDNAKNTVYLQMNSLKPEDTAVYYCAARRRSQYYRYAYKYDYWGQGTQVTVSS | high polyreactivity
QVQLVESGGGLVQAGGSLRLSCAASGSIFSWYAMGWYRQAPGKERELVAAISSRGGSTYYADSVKGRFTISRDTAKNTVYLQMYSLKPEDTAVYYCNTTYGYSTYWASGKYDYWGQGTQVTVSS | low polyreactivity
QVQLVESGGGLVQAGGSLRLSCAASGRTFSHYAMGWYRQAPGKERELVAGISSGSRTNYADSVKGRFTISRDNAKNTVYLQMNSLKPEDTAVYYCAARTKYLKGGYWGQGTQVTVSS | high polyreactivity
QVQLVESGGGLVQAGGSLRLSCAASGRTFIVNAMAWYRQAPGKERELVAAISSGGSTNYADSVKGRFTISRDNAKNTVYLQMNSLKPEDTAVYYCASRLRGPRSYWSWYGYWGQGTQVTVSS | high polyreactivity
QVQLVESGGGLVQAGGSLRLSCAASGRIFIYNAMGWSRQAPGIERELVARIRDRGDSTNYADSVKGRFTISRDNAKNTVYLQMNSLKPEDTAVYYCAAQPWLRYYYWGQGTQVTVSS | low polyreactivity
QVQLVESGGGLVQAGGSLRISCAASGRTFRVYSMGWYIQAPGKEWELVASISARSGSTYYADSVKGRFTISRDNAKNTVYLQLNSVKPEDTAVYYSAAARRGFKYDYWGQGTQVTVSS | high polyreactivity
QVQLVESGGGLVQAGGSLRLSCAASGSTFTSYAMGWYRQAPGKERELVAAISRRGTSTYYADSVKGRFTISRDNAKNTVYLQMNSLKPEDTAVYYCAADGYYWEYYYWGQVTQVTVSS | high polyreactivity
QVLLQESGGGLVQAGGSLRLCCSASGYISGDQFMGWYRQAPGKEREFVAGIGNGTNTNYADSVKGRFTTSRDNEKNTVYLQMNIRKPEDTAVYYCAADPSDGSTLAYWGQGTQVTVSS | high polyreactivity
QVQLVESGGGLVQAGGSLRLSCAASGRTFRYYDMGWYRQAPGKEREFVAAITWRGGSTYYADSVKGRFTISRDYAKNTVYLQMNSLTPEDTAVYYCATDSLRLYGGKRDLYYWGQGTQVTVSS | low polyreactivity
QVQLVESGGGLVQAGGSLRLSCAASGRTLGYYAMGWYRQAPGKERELVAAISGSGGITYYADSVKGRFTISRDNAKNTVYLQMNSLKPEDTAVYYCNVDPTAKWFNYDSWGQGTQVTVSS | low polyreactivity
QVQLVESGGGLVQAGGSLRLICAASGRPSVLMLMGLYRQEPGKERELVAAIDDSTDTTYYADSVKGRFTISRDNAKNTVYLQMNSLKPDVTAGYYCADEEGYVKFSGSWSYGYDYWGQGTQVTVSS | high polyreactivity
QVQLVESGGGLVQAGGSLRLSCAASGGIFVANAMGWYRQAPGKERELVAAISRSGGSTYYADSVKGRFTISRDNAKNTVYLQMNSLKPEDTAVYYCAAKSRRQYTVGLTSDYWGQGTQVTVSS | high polyreactivity
QVQLVESGGGLVQEGGSLRIICAASGFTFYRYARGWYRQEPGKERELVAAISSHGDRTYYSDSVKGRFTISRDNAKNTVYLQMNSLKPEDTAVYFCNVETLYGYFLHFYLRYYHWGQGTQVTVSS | high polyreactivity
QVQLVESGGGLVQAVGSLRLSCAASGRIFYPYAMGWYRQAPGKERELVAVITSGTGTYYADSVKGRFTISRDNAKNTVYLQMNSLKQEDTAVYYCAADRWYYRHRSSSYGYDYWGQGTQVTVSS | high polyreactivity
QVQLVESGGGLVQAGGSLRLICAASGRTFAYYAMGWYRQAPGKERELVATITWNGGSTYYADSVKGRFTISRDNAKNTVYLQMNSLKPEDTAVYYCAKSVGWWSPPLGDYWGQGTQVTVSS | low polyreactivity
QVQLVESGGGLVQAGGSLRLSCAASGRTFRINAMGCYRQAPGKERELVAAITSGGRTNYADSVKGRFTISRDNAKNTVYLQMNSLKPEDTAVYYCAAERTPSYRAYDYWGQGTQVTVSS | low polyreactivity
QVQLVESGGGLVQAGGSLRLSCAASGRTFSNYAMGWYRQAPGKERELVAAISQRGGSTYYADSVKGRFTISRDNAKNTVYLLMNSLKPEDTAVYYCNARQTTATGGTGNYWGQGTQVTVSS | high polyreactivity
QVQLVESGGCLVQAGGSLRLIRDASGFIIRPYAMGWYRQAPGKEREFVAAITGGGSTYYADSVKGRFTISRDNAKNTVYLQMNSLKPEDTAVYYCNADRRRRSGGFAGWHFQRKDYWGQGTQVTVSS | low polyreactivity
